Laboratory results from the NTF2 design screens of Basanta et al. (2020).

Assay: protease stability score; higher = more stable; yeast display proteolysis, trypsin and chymotrypsin;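 note: relative to predicted unfolded state with 0 unfolded-like and 1 meaning tenfold more protease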

Sequence	protease stability score
SEEEEEVHKFMEDLARAYLTGDEKRFRELVDPNVKSNIDGQTIHGREELTKWVSDSAKKYGVDHLEMRVRTINIQGNKAHMDGEIVLEYGDKRVSRQVEIVVTKINGQWLLEREHIH	1.88
SEDHEISRRMLEMVLDSFDTGDEHIYKDLADPHAKIEVNGKDIHGWDTWASEMVERTERVPGVRKEIHIRDIKSQGDKIEIRGEVIIDFNGKTIRYRVLFVIEKINGRWFIKSEHIK	1.04
DRDEQMLRTYLHRMYESIRTGDEDSFKRLFDPNTRLHFENHHEHGWELLLRLMLRYANQADHFKLEIEDVTVQGDKAILRVHITVHVDGRDVSRSTVLYTTKVDGQWHFETVREK	1.48
DERDELLEHVIKLHQDALRTGDEHTLTELMDPHVRVIIGDKHHHGWESITKYLRELRFHSHEVHIDHVHIFNGRIHADITLRGTHHFNGRTFHDTHKVELINTKINGKWTIESLIIR	1.15
DTSFTILEEVIKLFIEASETGDERVIQHLFDPNVRFRVDGKDFHGMDWLLEHFSHLRLHDIQITHVHIYNGRVEVTGHVRGNFDGQEKVHNTHILLRKIDGKWRIEHISMK	1.41
SHLEEEAKEAHDVWLHELLTGDEHQINRLLDPHTRVHIGDKDLHGRHELVRKMVETVRRVDHYHLKIKHLRVQGDKIVSTGNYTLHINGKDIHIDTRLILTKIDGVWILEEIRVE	1.16
DEDDENNREMHDLSIRLFKTGDFDKIHKLMDPNAKLVIDIGDKHLHHHGREEASKRIFEIWHTLGVDHVHIKTHRHYGEKITIDMHLDINGQDTELIIVVLKINGRWLIQSVSMHFR	1.35
DREEKQAEEVATEIIRALLTGDEKWLLHLIDPNVRWIMDVNGKELTLHGWHELIKKFRDDFRHLGVERFHVHVKDWDIQGDKMHLRVTFHIDGKTFDYELIIIVINGRITSMEVREH	2
DEDRRDAEYARDIWTETLETGDEDLLHELMDPHVRIEIGDKETHGRENYVKKFIRMGVRLKHRNDKHVTIVNGRVHLFGEFHVIINGRHHDLRVEIVIEKVNGRWVVKSIHVH	0.688
SEEVEHAEKVMRHTVHNIETGDEETWSNLADPNVLFQQGEFNLHGRELMFEWVRKYYEKIKNARIEIEDVRVFDGQIEFDVTWRVGDKHLKVHLHIEVINGRITEVRVDEK	0.98
TEDEDIFRHALEVWLRSFLTGNEEILNHLFDPHARVHIDGKNLHGMEMMVTHRQRHIEEARIRDSDIEHKNVIDGRIHIDIRVHGEVNGQEMDFNVTIIAMKVDGRWLIHSLHVE	0.265
SERREFSNFTMQMTITVTLTGDFHTSHRFVDPHARWEQGDKEYHGREIFAKTLLDKSSELGVDHYDIKTIHIQGEKVTVHLRVEVNGVEFELILRAHKINGVWLMESVEVRER	0.971
SEDERDMEKASEDMLRNWMTGDFKSLHTLLDPHYRIDIDGQWHHGRDLWVEALRELLHQLGVERVEARERDFKIQGNKLESHIELRYNGRTIETDDLFIKIDGRWFIHSIHLRIR	0.94
DEVEERMKRIVKHFVSAVLTGNFRHMEQLFDPNYKHRIEIGDKIVNLHGWEAVVKWIEEEWRRFDHVEIRIRDMDVIGNKSEVHGDLHLKAENHTLEIHVIEHFFIVNGKLHHIEKTHH	-0.007
DHREEEQKRLTEEFITALKTGDEERWKELLDPNVKMHINGKDVVGREIAAKDLLDHWKNLGIKHIITHRIELQGEKVRIDTEERFNGRSVKTTMIIIVINGRLESFEFHVH	0.653
SEVEEEMKRRVELLIRLLLTGDEDTFDSNADPDTRVVIRQGDFRVENHGRELMLHHLRELGIKVTELHLREIRIQGDWAHVNIQEHIEVDGRLESRTIHLHFFLVDGKVKSWEIEVR	1.27
DEDEHEMRELIDKWLHNLKTGDEKRTEELMDPHAKIRTVINGVEYRFHGREMLHYLVQILGVDHMEIKHVEIRVQGNKVENHVDLTLIVGDKHVRTRMILVAEKIDGRWEVKSLFFNIE	1.96
TDEEKSVEELLEKIEHANDTGDFELHKRLADPHVRVLVNGVELHGRHVLMEWLRELFERFKNVTFRLNLREVEFQGEWVFLRIELTVHVNGRTHHHDSIYIIHKVDGRWHITEVRFH	1.34
SETEETSRHLMEMFEKSMLTGDEEHYKRMADPNVRMHINGQEYVGWEDFTRILREIRTEEVRFKVKRYDLVGEYLHVDLRIERDTHVNGVKVEFRTEAELIVVKVDGRWIVKEVRIK	1.27
DEDREAAEFVVEHLLRALSTGNEEEFLSLLDPTVKWEIDGREYHGRELVSKILHEIRIKTTEFRSTRHEYQGDYLKLDGILHTTVEIDGKRKHLDVNLHMLILKYDGRWLLKSMSVR	1.53
HELLEHVKKIIEMWNKLLHTGDEETLNKLLDPRVRIHVNGRELIGREAVETELREIRFEITYTHVKEVDVVGDKVHVNTLLDGEFRIGNFVIRTRTDARLHLLKVDGKWLLESLHVT	1.24
HEDNDIMEKAMEDILEKIVTGDEDFLREQMDPHVRSVDIINGRRIERHGREDILELLRRLGFDHVRLERYDIQGDKLIVHSKFTYGDKETELRIIIWKVNGRWVFHSVEVIIL	1.87
TDEEEMLRNFWHELIHALHTGDEELFEELADPDTRWYFENRVVIGRETVRNMIDELRIKEVRVERMRIQGDKFHAKLTQRGQINGREVNTETNLHVDIYNGRLKSVELRVK	0.888
DEDEEIRTRSLRLLIQLLITGDEEIFKQLFDPHALVIINGRRHHGWTLLEEYWRRLGADVIKSVELENTDDVNGVLILDMRLHMHINGRDDSQRIHIIATKINGKWRNESIVLS	1.22
SMEEMSELYIKWWMTGDWDKLTNNADPHTRVNVGNFESVGMEHLIELMLRHVKHFGINHSILRSHDTQGDKVHVDGELHVNGRTARIVLHLEIVNGRIKSESVESRSEVFEEHLHKVLR	0.635

Sequence	protease stability score
DTIERFVRHSFNLFVKQLETGDEHTLEKMADPHVRLEYGDKEYHGREEFKRQMHEIRFKRLELKRIEIQGEWAIMHGEDDGHFNGVDMKLESTEIAVKVNGRWYLKSFILK	1.41
EEEAAHQFNKWLSLMKHGNEHKASEMLDKDAHIKVGDKTLQGREDVQRDVRRRKEELKFSMTIVDYKDHGDKARLTVEQTNDHNGRPRTRRANVTVHVSNGRVKEIVINDDS	-0.16
SEEDDDSREVLELFVRLMVTGDFHELAELLDPNVRTHINGKERVGREQMIKILKRLFDEWGVDRVIVHVKHIDVQGEKAHMDGTLIYGDKMQKSHVTLIYVNGRLERIHIELN	1.13
DKEEEMVRHTATRFLHLLLTGDEEIITHLADPNMRIEVGDKESHGREHFADVIKEFSDHMRIKEWHIEVNEVVNGRILFDIHVDGIIGDKEDRIRFHLDIVVVNGKIKHVRIKIK	1.15
SEEEERAEELVRLWEHDLKTGNEHLLRELMDPNTRLVVNGRHTHGREHAVNILLQFVEEWRIESVHLHRWRVIGDKIDLDIHIHGRINGVEHHIKSILVLVKINGKWLIHTIVIH	1.02
DEEERAMEHMVRHLVDDIHTGDWRSLYRFLDPDVRLHVGDKRFHGRDTIVRLLLELLQTWGIDRIHSEVKHVHLQGEKIEAHTKDKYGDFEFSVLVDIFKIDGKWVIERREIS	1.08
DEIYEDIKHIVDLLSHAHETGDEHELKHLADPNVKWIINGVELVGWEDFRKLLEHLRHKRVHMDPRDVKRQGDYIHVTAELRFTGVFNGREREETFEVHLHMKKVNGRWLLTSVRVK	1.48
DKKEKDAKEAFDWLVKHVRTGDETMLHELMDPDVKLEIGDKHIVGRENVVHVFSRLIERADHMEFILTDMKVYDGRVESDTILVLHIDGVEIRRKTKITVIKINGRWLLHTVHIE	1.31
DEDTKRAEHIMRMFIHSMLTGDEKTTHELLDPEARVNINGVDLHGRETLLEHHHRWLHELRIEDMHTEHYEVQGDYVHLHTREVVVVDGRRIELTTTFLLLKVDGRWVWTHIHVK	0.997
HEIEEIARHINNIWEERSRTGDFRHFTTLLDPHARIDINGVELHGRELWMSRVYHHFQSHGIEYSVHTKHIEVFDGRVHLHGELFFHFNGVDITIRTHHTMRKVDGRWFVEQIIVH	0.468
DHEKKEIEDLLRELFEALFTGDEHILHRLLDPRTKLVINGRNYHGRETVRRFVLHIRIFFHHIEIESSEIQGEWIHLHIRVDFREEQGDKERRIDTHAVMHMLKVNGRWVIHEIVLH	1.54
DEDERTFRTAITLLLRDMHTGDEESFEKMVDPRTRLRYNGKELHGRDAYEFSLEELGVKHIEFKDMRVQGDFIWLEGTVNVNGKKIKLILIILKVDGKWIIHSIHLH	0.799
DEEQNHFFESIKELTHSWRTGDEERVTKLADPNVRLEINGRDIVGMERFSKLMIELRVHDLKIHRIRVVNGKVESDIEMHIHQGDKHSVTETHIFARKVDGKWILESIRIG	1.07
DEEDELFEIFIREWRRLVKTGNFKEIVDNADPHAKSVINGKELVGREHMSRLMLELGIKYYDERSWDVYGDKVVIHGREKFNGRESESIVFAEKVNGRWVLTKVEIR	1.45
SEDEDISRNFLELEWKKHMTGDWRTFAENIDPNARVDIDGVEFHGRELISRLMHEKIRKHGVKIKHLHIDHVSSQGDKIHINTTLVGLFNGRDTHLEVHIVITKINGRWVLQEFHFD	0.591
DHHKESSEYLVRDYYEYIETGDFKRMEELADPNMKVVVGDKTHHGRESLSVVYLRLGIKHWDIKRIHNIGNKIRIHSTIFVDGVDMHEHSHAEKIDGRWLLRELSFE	0.319
DEEEEYYRRAVEIHERVLRTGDWRQLRELMDPRTKIDVGDKSFHGRDTITHWTKEMLEKFGVTKVEFHFDHLEMQGDKANIRGTLQINGQPIDISIHSVKIDGRWLIKFVKID	0.822
DHEEEHALRIMQLLLWLDFTGDEETIHHLMDPHVRSVWIVGDKTITRHGRENVLKLFRDLGFKHVKDFRIRDVSAFDGRVDLKGRIDGQYGDKRETWDMDVELNVVDGRLKFFIIRFK	1.69
SHDEEWARRFFEDFVRAILTGDEEHLFKNVDPNVRVEIGDKELHGREDFHQHLHEIRIKRFEVHDLTLQGEKVEEDIEMDGQVNGQRFRTRQRVVVDWVNGRFHHLKIEWE	0.715
DEETKIIEHILEHWLRLIQTGDFHELFRLVDPNVRIDINGVEYHGREEMIKFWKEEVDKLGVDRIHTDLNRNEYQGDKIILHQEVRINGRHIDIHVHAEKVDGVWILRILKRD	1.57
DEEQELTEMVFRIIKRLNETGNEEELRRNADPHVRLDWNGVHYHGREVYDHVWNMLGFEIKDTRIRDIRMQGEKIFVDGERRGNINGRTIDTRIIIIIIAVNGRMKEIVIRDL	1.3
NERTEEIEEAMERMLEWWRTGNFEDINKNLDPNMRTHVFIDGREVLFHGRELMLEIFDRMGVDHIEVTHFDVIGNKVEVHSRSHQGDKHVDIKLVLEKIDGRWILSQIHIRIE	1.94
DEKEEFTRRFAQILIELWKTGDEEDMNNNMDPDVQNHSEFNGREVHLIGMELYVEHSEQWLNRVKNARIIWRHVDAQGDKILIHGDLIVNGKRIHVELDFYIVNGRIKSITIHER	2.02
SEHDERRRRVLELWFHALHTGDEEKLQELMDPDARLDINGVKLHGRDKLIEFFREWRFKHVDIHDMDEFNGVVNIKIEHVEIYNGQHRRVETRIFLIKINGRWHFRHIELH	1.66
DETREESYEFLWKLIHNWQTGNEDRLDELIDPHVRLVVGDKNHHGREELIELIREILERADHLRMRMRHFRVQGDKAEVDTRLQMEIGDKSIDTETHVRIIVVDGRVKYLEYEIK	0.459
